Data: patent US7732178B2, “Laccase enzymes and their uses” (AB Enzymes Oy, priority 2004, dated 2010)

Tests used:
[1] = Stain removal, tea soiling; parameters: key to Tea L* / Tea a* / Tea b*: CIE L*a*b* color coordinates from reflectance; details: for Tea L* / Tea a* / Tea b*: 60 min, pH 6
Description: (§1) Laccases CtLcc1, TaLcc2, TaLcc4 and Denilite II Base (Example 7) were tested for their ability to remove stains. The following artificially soiled test cloths were used: grass soiling (Art.164, EMPA Testmaterialen, Germany), tea soiling (Art. 167, EMPA Testmaterialen, Germany). The fabric was cut in 5.8×5.8 cm swatches. Laccase treatments were performed in LP-2 Launder Ometer as follows. About 5 g of soiled fabrics were loaded into 1.2 liter containers containing 150 ml Mc Ilvaine's citrate phosphate buffer pH 6 and the containers were temperated. Enzyme with or without the mediator (methyl syringate, DeniLite II Assist, Novozymes) was added as laccase activity units (Example 7). Enzyme was dosed 200 nkat/g and the mediator 10 mg/g on the weight of fabric, except at 40° C. dosages of 20 nkat/g and 2 mg/g were also used. The Launder Ometer was run at 40, 50 or 60° C. and pH 6 for 60 min. After that the swatches were carefully rinsed under running water and in shake flasks containing warm water and dried in the air.
(§2) The stain removal effect was evaluated by measuring the colour as reflectance values using L*a*b* color space coordinates (Example 7). The colour of the swatches was measured before and after the laccase treatment.

[2] = Decolorization of dyes; parameters: key to Decolorization of Cibacron Brilliant Red 3B-P, Time 30 min / Decolorization of Cibacron Brilliant Red 3B-P, Time 60 min: −: no visually detectable change; +: visually detectable fading of the colour; ++: considerable fading of the colour; +++: complete/almost complete decolorization; details: for Decolorization of Cibacron Brilliant Red 3B-P, Time 30 min / Decolorization of Cibacron Brilliant Red 3B-P, Time 60 min: Table 24, dye 5 mg/50 ml, enzyme 100 nkat/50 ml, 50° C., pH 6
Description: The recombinant laccases CtLcc1, TaLcc2 and TaLcc4, derived from Trichoderma strains (Example 7) were tested for their ability to decolorize different dyes in the presence of the methyl syringate mediator (Example 7) or without it. The experiments were carried out in 100 ml shake flasks containing 50 ml of dye dissolved in citrate phosphate buffer pH 6. Dye concentration 5 mg/50 ml was used. Enzyme was dosed 100 nkat per 50 ml and the mediator 5 mg per 50 ml. Control samples contained only dye solution. The shake flasks were incubated at 50° C. for 30, 60 and 120 minutes. Samples of 3.5 ml were taken in test tubes for visual evaluation.

[3] = Denim bleaching at different temperatures; parameters: key to After laccase treatment L* / After laccase treatment b* / Increase of L*: CIE L*a*b* colour coordinates (illuminant D65), reflectance; details: for After laccase treatment L* / After laccase treatment b* / Increase of L*: face side of denim, 30 min, pH 6, enzyme 200 nkat/g, mediator 10 mg/g
Description: Lee Cooper jeans (MASI Company Oy, Finland) that were desized and treated with neutral ECOSTONE® cellulase were used as test material. Laccase treatments were performed in LP-2 Launder Ometer as follows. About 10 g of denim swatches (15×14 cm) were loaded into 1.2 liter containers containing 200 ml Mc Ilvaine's citrate phosphate buffer pH 5, 6 or 7 and the containers were temperated. Enzyme with or without the mediator (methyl syringate, DeniLite II Assist, Novozymes) was added as laccase activity units. Enzyme was dosed 200 nkat/g and the mediator 10 mg/g on the weight of fabric. […] The Launder Ometer was run at 50° C. for 30 min and after that the temperature in Launder was raised to 80° C. for 10 min. The swatches were carefully rinsed with warm water, dried half-dry in a tumbler and after that air dried.
The bleaching effect was evaluated by measuring the colour as reflectance values with the Minolta Chromameter CM 1000 (Minolta Co.) using L*a*b* color space coordinates (illuminant D65). The colour from both sides of the swatches was measured before and after the laccase treatment. Each measurement was the average of several measurements.
The test system and denim were as in Example 7, except that the conditions during the laccase and mediator treatment in Launder were 30 min, pH 6 and temperature 30-70° C. (DeniLite II Base also at 80° C.) and the enzyme was inactivated by alkaline treatment instead of raising the temperature in Launder as follows. After removing swatches from the containers they were soaked in warm water containing NaOH (pH 11.5) for 10 min and rinsed carefully with warm water. The swatches were dried half-dry in a tumbler and after that air dried. The bleaching effect was evaluated by measuring the colour as reflectance values as in Example 7.

[4] = Stain removal, grass soiling; parameters: key to Grass L* / Grass a* / Grass b*: CIE L*a*b* color coordinates from reflectance; details: for Grass L* / Grass a* / Grass b*: 60 min, pH 6
Description: as §1, §2

[5] = Specific activity towards guaiacol; format: biochemical; details: 25 mM MES buffer, pH 5.5
Description: Specific activities of the purified T. arenaria and C. thermophilum laccases were determined towards different laccase substrates.

[6] = 40° C., enzyme 20 nkat/g + mediator 2 mg/g (Mediator only: 0 nkat/g)
[7] = 40° C., enzyme 200 nkat/g + mediator 10 mg/g (Mediator only: 0 nkat/g), RF5571
[8] = 40° C., enzyme 200 nkat/g + mediator 10 mg/g (Mediator only: 0 nkat/g), RF5573
[9] = 40° C., enzyme 200 nkat/g, mediator 0 mg/g
[10] = 50° C., enzyme 200 nkat/g + mediator 10 mg/g (Mediator only: 0 nkat/g)
[11] = CtLcc1 at 60° C., TaLcc2 at 50° C.

B1: TaLcc2: Thielavia arenaria ALKO 4197 laccase, SEQ ID NO: 41, produced in Trichoderma reesei (protein)
chain: MLTETLKSRNMLQSILALLATALGSSAFAIPELPEVSLQPRQACENTATSRQCWGDLSIDTNYYEVLPSTGRPPQEYWLSVVEGPCAPDGYNRTCMTFNGTVPGPTLFADWGDELVIHVTNNMVNNGTAIHWHGIRMLNNTLNDGVPGVTQCAIAPGESMTYRFNVTQYGSTWYHSHFSLQYAEGLFGGMILRGPSTANWDEDLGVLFLQDWSHVEAFTRWHEAKAGFPPSLDGGLINGTNTFDCSTLSPTDPKCTGNGKKFETVFEPGKKYLIRLINVAIDGVFQFSIDGHSLTVIATDLVPIVPYTTDSVQITIGQRYDIIVEANATPGNYWMRADWVTACVTNDHPEHMTGIVRYDASSIDPPTSESNVTKTSSCLGEPNEKTIPHLSLDVTNIGGTNVEELSFDTTSGDYFQWTLNTSSLVLDWGNPTMARIFNGDAIFPTEYNVVAVNKTGTGPEWTVLVIQDQSNLPIAHPIHLHGHDFWVLAAEEGVFNGNISSFNTRNPARRDVATLPGRGYLAIAFQIDNPGTWLTHCHIAWHASQGLSLEFVESQSEIVTDEVSRGVFNDVCASWRAHDPLWEQEDSGI
modifications: Thielavia arenaria ALKO4197; (1)..(589) Deduced amino acid sequence of Thielavia arenaria ALKO4197 TaLacc2
With B1 the “Tea L*” value [1, 6] was 75.61, the “Tea a*” value [1, 6] was 5.24 and the “Tea b*” value [1, 6] was 23.66. For the same molecule, the “Tea L*” value [1, 7] was 77.28, the “Tea a*” value [1, 7] was 4.36 and the “Tea b*” value [1, 7] was 24.32. For the same molecule, the “Tea L*” value [1, 8] was 77.04, the “Tea a*” value [1, 8] was 4.41 and the “Tea b*” value [1, 8] was 24.36. The “Tea L*” value [1, 9] was 76.09, the “Tea a*” value [1, 9] was 5.37 and the “Tea b*” value [1, 9] was 22.59. The “Tea L*” value [1, 10] was 77.73, the “Tea a*” value [1, 10] was 3.99 and the “Tea b*” value [1, 10] was 22.89. The “removal of tea soiling with the mediator” value [1, 11] was “effective”, the “Decolorization of Cibacron Brilliant Red 3B-P, Time 30 min” value ([2]; mediator 0 mg/50 ml) was “−” and the “Decolorization of Cibacron Brilliant Red 3B-P, Time 60 min” value ([2]; mediator 0 mg/50 ml) was “−”. The “Decolorization of Cibacron Brilliant Red 3B-P, Time 30 min” value ([2]; mediator 5 mg/50 ml) was “+”, the “Decolorization of Cibacron Brilliant Red 3B-P, Time 60 min” value ([2]; mediator 5 mg/50 ml) was “+” and the “decolorization of Cibacron Brilliant Red 3B-P” value ([2]; in the presence of the mediator) was “partly decolorized”. The “decolorization of denim (increase of lightness) compared to Denilite II Base” value ([3]; 40-50 ° C. and pH 6) was “more efficient”, the “After laccase treatment L*” value ([3]; 30° C.) was 33.99 and the “After laccase treatment b*” value ([3]; 30° C.) was −19.33. For the same molecule, the “Increase of L*” value ([3]; 30° C.) was 4.45, the “After laccase treatment L*” value ([3]; 40° C.) was 37.08 and the “After laccase treatment b*” value ([3]; 40° C.) was −18.53. The “Increase of L*” value ([3]; 40° C.) was 8.15, the “After laccase treatment L*” value ([3]; 50° C., alkaline inactivation) was 37.47 and the “After laccase treatment b*” value ([3]; 50° C., alkaline inactivation) was −18.48. The “Increase of L*” value ([3]; 50° C., alkaline inactivation) was 9.00, the “After laccase treatment L*” value ([3]; 60° C.) was 36.07 and the “After laccase treatment b*” value ([3]; 60° C.) was −18.26. The “Increase of L*” value ([3]; 60° C.) was 6.82, the “After laccase treatment L*” value ([3]; 70° C.) was 32.84 and the “After laccase treatment b*” value ([3]; 70° C.) was −17.94. The “Increase of L*” value ([3]; 70° C.) was 4.54, the “Grass L*” value [4, 6] was 79.25 and the “Grass a*” value [4, 6] was −2.14. The “Grass b*” value [4, 6] was 16.41, the “Grass L*” value [4, 7] was 79.24 and the “Grass a*” value [4, 7] was −0.31. For the same molecule, the “Grass b*” value [4, 7] was 16.72, the “Grass L*” value [4, 8] was 79.19 and the “Grass a*” value [4, 8] was −0.26. The “Grass b*” value [4, 8] was 16.99, the “Grass L*” value [4, 9] was 80.01 and the “Grass a*” value [4, 9] was −4.90. The “Grass b*” value [4, 9] was 17.63, the “Grass L*” value [4, 10] was 79.50 and the “Grass a*” value [4, 10] was −1.15. The “Grass b*” value [4, 10] was 17.94, the “removal of grass soiling with the mediator” value [4, 11] was “effective” and the “Specific activity on guaiacol” value [5] was 40 nkat/mg.
